The record followed here is patent US20240189458A1, “METHODS FOR IN VIVO DELIVERY OF MICROBES TO HUMAN MICROENVIRONMENTS” (priority 2021, published 2024).

Ends that are not written are not given here.

What all share (format): cell-based
Experiment [1] has as its target T1, S. Typhimurium PhoPQ (Salmonella typhimurium, UniProt P0DM80).
T1 construct: expressed in transfected cells; host or cells: E. coli BW30007 (lacks E. coli phoPQ) with the cassette integrated in the genome = strain KB1
As to the kind of experiment: SLAY-TCS sort-seq screen of KB1 human AMP library. The following applies: for sort-seq fold activation of PhoPQ relative to no-peptide control: KB1 library, 500 μM IPTG. The text has this: PhoQ senses diverse human AMPs: To characterize the response of PhoQ to most human AMPs, 133 human AMPs in the Antimicrobial Peptide Database (APD3) were first identified). From this set, 16 (12%) were excluded exceeding 104 amino acids in length due to size restrictions of commercial oligonucleotide synthesis. The remaining set of 117 AMPs vary in charge, length, hydrophobicity, and secondary structure, and comprise 11 clusters of high sequence similarity. These clusters include families of mature AMPs processed from a single precursor peptide (e.g. products of cathelicidin, human defensin 5, and β-amyloid) and peptides with high sequence similarity that are produced from distinct genes (e.g. CXCL1, CXCL2, and CXCL3).
This plasmid library was transformed into KB1. Using Illumina NGS, it was validated that sequences encoding all 117 human AMPs, along with no-peptide controls, are present in the KB1 human AMP library. Variants of human AMPs were also identified that likely resulted from errors in oligo synthesis or plasmid assembly. As expected, these variants generally had lower representation in the library than the human AMPs.
Next, sort-seq was utilized to characterize the effect of each peptide on PhoPQ activity. First, the KB1 human AMP library was grown in the presence of 500 μM IPTG, which induces sufficient expression of positive control AMPs to strongly activate PhoPQ (FIG. 25D). Then, FACS was used to sort these bacteria into eight logarithmically-spaced mNG fluorescence bins (FIG. 26B). The bins were designed to span the fluorescence distributions of negative (no peptide) and positive (C18G) PhoQ activity control strains measured on the same day. […] Next, Illumina NGS was used to sequence the peptide-encoding DNA regions from bacteria in each bin and estimated the mean mNG fluorescence level of each strain using the relative abundances of peptide-encoding sequences across fluorescence bins. These estimated fluorescence values were divided by the estimated mean fluorescence of the no-peptide control to calculate the fold activation of PhoPQ in response to each peptide in the library.

The target in a further experiment is T2, KB1 PhoQ H277A (Salmonella typhimurium, UniProt P0DM80, H277A).
T2 construct: expressed in transfected cells; host or cells: E. coli KB1 derivative (BW30007 background)
T2 sequence (P0DM80 1-487 H277A): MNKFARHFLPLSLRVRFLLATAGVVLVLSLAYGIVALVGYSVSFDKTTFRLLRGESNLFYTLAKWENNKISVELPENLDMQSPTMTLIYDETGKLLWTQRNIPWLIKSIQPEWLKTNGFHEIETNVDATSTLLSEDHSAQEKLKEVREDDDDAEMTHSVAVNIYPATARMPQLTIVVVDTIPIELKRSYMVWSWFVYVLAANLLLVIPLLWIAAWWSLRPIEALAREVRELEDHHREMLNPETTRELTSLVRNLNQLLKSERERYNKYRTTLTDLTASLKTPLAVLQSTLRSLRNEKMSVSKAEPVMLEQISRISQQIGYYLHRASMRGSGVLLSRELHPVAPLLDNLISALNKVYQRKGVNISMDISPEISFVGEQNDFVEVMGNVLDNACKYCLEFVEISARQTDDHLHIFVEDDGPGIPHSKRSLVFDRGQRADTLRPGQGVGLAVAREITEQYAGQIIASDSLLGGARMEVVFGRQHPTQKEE
As to the kind of experiment: Negative control strains (S. Typhimurium lacking phoQ; KB1 PhoQ H277A).

For experiment [2], the target named is T1, S. Typhimurium PhoPQ. As to the kind of experiment: SLAY-TCS: surface-displayed peptides in KB1, single strains, flow cytometry. Particulars: KB1, IPTG-induced display.
Description: In SLAY, peptides of interest are expressed at the C-terminus of a fusion protein consisting of the Lpp signal peptide, an OmpA transmembrane domain, and a flexible tether. […] In addition to PvirK-mNG, each of these plasmids encodes a SLAY fusion protein under the control of an isopropyl-β-D-thiogalactoside (IPTG)-inducible promoter (Ptac) (FIG. 25). Ptac is tightly repressed, to avoid potential toxicity arising from leaky AMP expression in the absence of inducer. […] Finally, a no-peptide control plasmid encoding a stop codon was constructed instead of a peptide following the OmpA transmembrane domain.

T1 sequence (P0DM80 whole entry): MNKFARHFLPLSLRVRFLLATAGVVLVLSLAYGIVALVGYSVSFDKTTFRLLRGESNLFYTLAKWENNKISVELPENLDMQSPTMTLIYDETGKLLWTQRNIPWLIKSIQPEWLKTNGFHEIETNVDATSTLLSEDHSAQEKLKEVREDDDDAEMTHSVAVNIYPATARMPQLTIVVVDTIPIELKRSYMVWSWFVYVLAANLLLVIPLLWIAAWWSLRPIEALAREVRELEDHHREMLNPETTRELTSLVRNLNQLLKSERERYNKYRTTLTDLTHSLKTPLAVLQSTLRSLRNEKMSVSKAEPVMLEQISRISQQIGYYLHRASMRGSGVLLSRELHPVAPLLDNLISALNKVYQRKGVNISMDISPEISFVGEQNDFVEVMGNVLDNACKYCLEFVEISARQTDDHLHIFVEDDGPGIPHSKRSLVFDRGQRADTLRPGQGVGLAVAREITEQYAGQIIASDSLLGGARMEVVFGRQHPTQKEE
Protocol for KB1 PhoQ H277A: This plasmid was transformed into both S. Typhimurium and KB1 to measure PhoPQ activation by the positive control AMP LL-37. […] LL-37 response was also measured in two negative control strains: an S. Typhimurium strain lacking phoQ and a KB1 derivative in which the catalytic histidine of PhoQ was mutated to an alanine (KB1 PhoQ H277A).

With CCL20, the “human AMPs sensed by PhoPQ” value at S. Typhimurium PhoPQ [1] is “senses”.

As to LL-37, the “LL-37 response in negative control strains” value at KB1 PhoQ H277A (S. Typhimurium lacking phoQ and KB1 PhoQ H277A) is “Neither negative control strain responds”. Moreover, at S. Typhimurium PhoPQ [1], the “sort-seq fold activation of PhoPQ relative to no-peptide control” value is recorded as 5.2 fold.

For “protegrin-1: positive control AMP containing disulfide bonds (RGGRLCYCRRRFCVCVGR; disulfide (positions not given here); ends not checked; also: disulfide bonds, pairing not given here; UniProt P32194 131-148, looked up)”, the “PhoPQ activation by surface-displayed AMPs in PhoQ H277A strain” value with KB1 PhoQ H277A (KB1 PhoQ H277A) is reported as “slight increase in mNG fluorescence”. Besides, in the experiment with S. Typhimurium PhoPQ [2], the “PhoPQ activation by surface-displayed peptide” value was “activates PhoPQ”.

Regarding “HNP-1: human defensin, negative control peptide”, the “sort-seq fold activation of PhoPQ relative to no-peptide control” value in the experiment with S. Typhimurium PhoPQ [1] is on record as “does not activate mNG expression”. Besides, the “PhoPQ activation by surface-displayed peptide” value in the experiment with S. Typhimurium PhoPQ [2] was “do not activate PhoPQ”.

Turning to NPY: neuropeptide Y, the “human AMPs sensed by PhoPQ” value in the experiment with S. Typhimurium PhoPQ [1] was “senses”.

“hBD3: human β-defensin 3 (GIINTLQKYYCRVRGGRCAVLSCLPKEEQIGKCSTRGRKCCRRKK; ends and bridges not checked; cysteine pairing not given here; UniProt P81534 23-67, looked up)”: in the experiment with S. Typhimurium PhoPQ [1], the “human AMPs sensed by PhoPQ” value was “senses”.
